Experiments:
[1] = molecular target: A/bat/Peru/10 H18 HA ectodomain (hemagglutinin of influenza virus A/flat-faced bat/Peru/033/2010, H18N11) (influenza A virus A/flat-faced bat/Peru/033/2010 (H18N11)); experiment: crystal structure
[2] = molecular target: A/bat/Peru/10 N11 NAL protein with ectodomain plus stalk region (influenza A virus A/flat-faced bat/Peru/033/2010 (H18N11))
[3] = molecular target: A/bat/Peru/10 N11 NAL ectodomain (neuraminidase-like protein of influenza virus A/flat-faced bat/Peru/033/2010, H18N11) (influenza A virus A/flat-faced bat/Peru/033/2010 (H18N11)); experiment: crystal structure

## A/bat/Peru/10 H18 HA ectodomain (hemagglutinin of influenza virus A/flat-faced bat/Peru/033/2010, H18N11) (domain or fragment)
[1]
  stoichiometry N: 3

## A/bat/Peru/10 N11 NAL protein with ectodomain plus stalk region (domain or fragment)
[2]
  stoichiometry N: 4

## A/bat/Peru/10 N11 NAL ectodomain (neuraminidase-like protein of influenza virus A/flat-faced bat/Peru/033/2010, H18N11) (domain or fragment)
[3]
  stoichiometry N: 4

Reference: publication PMC3794996
